Laboratory results from publication PMC7280309 (Nature Communications, 2020).

T1: DotL with a C-terminal Strep-tag (Legionella pneumophila, UniProt Q5ZYC6 1-783)
T1 sequence: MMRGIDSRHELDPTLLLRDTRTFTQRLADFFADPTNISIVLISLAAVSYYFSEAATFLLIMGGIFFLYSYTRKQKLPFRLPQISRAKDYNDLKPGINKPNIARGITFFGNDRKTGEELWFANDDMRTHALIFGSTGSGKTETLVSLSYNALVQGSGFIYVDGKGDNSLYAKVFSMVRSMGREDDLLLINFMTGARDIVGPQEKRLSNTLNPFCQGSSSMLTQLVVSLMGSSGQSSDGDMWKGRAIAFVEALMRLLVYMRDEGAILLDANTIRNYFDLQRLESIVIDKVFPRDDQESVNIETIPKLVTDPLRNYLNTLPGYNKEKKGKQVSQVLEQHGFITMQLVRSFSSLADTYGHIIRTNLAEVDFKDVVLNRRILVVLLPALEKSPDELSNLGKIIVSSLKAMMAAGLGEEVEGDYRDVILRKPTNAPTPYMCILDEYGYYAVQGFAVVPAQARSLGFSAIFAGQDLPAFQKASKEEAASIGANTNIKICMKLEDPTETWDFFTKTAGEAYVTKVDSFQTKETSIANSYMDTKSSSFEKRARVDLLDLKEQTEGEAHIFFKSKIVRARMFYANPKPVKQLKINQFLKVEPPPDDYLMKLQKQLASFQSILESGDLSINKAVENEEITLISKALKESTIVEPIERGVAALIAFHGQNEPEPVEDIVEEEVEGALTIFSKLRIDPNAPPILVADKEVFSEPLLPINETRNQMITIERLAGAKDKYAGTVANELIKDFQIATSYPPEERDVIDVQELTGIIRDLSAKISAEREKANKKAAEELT

B1: DotY (natural protein)
chain: MPKYTLPTRDALLKAMQVGETSIEAAEYMATRFEQILTKAKLLPECNDMLEKIKEYAQFVKFKLLSSAQVWSGQERPTSDYQNTQENKAEFLASHLEGLPSGLKLEVAIGDDAKILRGFSSNGKMVEGDQLKTMDGLLEGWLAKNSLAISGGAVVKIDNTGNQTKVDPQEIRQLINDSEKGVAKYFADKGVGMEVAQRTYQEPKALETKREEIRQEIESGAEAPTTQSIR
B2: DotZ (natural protein)
chain: MDEIKKDDELSQWLSTYGTITAERILGRYNISLPQDEILEAINIPSSFYRHLLQIPLKNVLNGIVIQQASDYHVYAQKLLIDYLLSGESSKEPDSQGAGTRESLEDERQRLVQLGDEFHKLELEQDNLIASSQASLMKISIDWNTKLETTLSKLNSLYKNTNSKIKKNAIRKALIKAFIHCDLVKDQSQKNKYQLIDKLNQTLAVSVGAELKESILTNLSELFQILEALNTKLDEFTDRTNHLSQQAKSFRTQFYEVILRIIELIKLLPEYKIDPAQDAINREPLYFDRTIGER
B3: DotN (natural protein)
chain: MNVNQTMADNQQRCELKLIASPGSWRLYSARKIDERFKSYEQKIFQRDRYTCQFCGFQARLYQDIVNLDGDYTNNRLSNLVTACCFCAQCFFVESVGVGGYGGGTLIYLPELTQAELNSLCHVLFCAITNDTGYKSSAQNIYRSFKFRSQIVEEKFGEGTSDPAIFGQLMIDSGVNSEEIREKLFKNIRLLPSRAKFRKQIEKWAASALEEIAD

How the values were obtained:
[1] = target: B2; test: cryo-EM structure; settings: both partners purified
[2] = target: T1, DotL with a C-terminal Strep-tag; test: affinity purification with mass spectrometry; settings: partners not purified
[3] = target: B1; test: cryo-EM structure; settings: both partners purified

| Binder | binding result [1] | binding result [2] | binding result [3] |
| --- | --- | --- | --- |
| B1 | binds | – | – |
| B2 | – | binds | – |
| B3 | binds | binds | binds |
